Results on eight molecules are retold here after patent publication US20100311648A1 (AstraZeneca / MedImmune, published 2010).

B1: Ac-Arg-cyclo(Glu-Ser-D-Phe(4-CN)-Arg-Trp-Orn)-NH2 (peptide)
peptide: Ac-RES[dPhe(4-CN)]RW[Orn]-NH2
modifications: lactam 2-7
SMILES: CC(=O)N[C@@H](CCCNC(=N)N)C(=O)N[C@H]1CCC(=O)NCCC[C@@H](C(N)=O)NC(=O)[C@H](Cc2c[nH]c3ccccc23)NC(=O)[C@H](CCCNC(=N)N)NC(=O)[C@@H](Cc2ccc(C#N)cc2)NC(=O)[C@H](CO)NC1=O
notes: also called No. 45
B2: Ac-Arg-cyclo(Glu-Ser-D-Phe(4-F)-Arg-Trp-Orn)-NH2 (peptide)
peptide: Ac-RES[dPhe(4-F)]RW[Orn]-NH2
modifications: lactam 2-7
SMILES: CC(=O)N[C@@H](CCCNC(=N)N)C(=O)N[C@H]1CCC(=O)NCCC[C@@H](C(N)=O)NC(=O)[C@H](Cc2c[nH]c3ccccc23)NC(=O)[C@H](CCCNC(=N)N)NC(=O)[C@@H](Cc2ccc(F)cc2)NC(=O)[C@H](CO)NC1=O
notes: also called No. 65
B3: Ac-Arg-cyclo(Glu-Thr-D-Phe(4-CN)-Arg-Trp-Orn)-NH2 (peptide)
peptide: Ac-RET[dPhe(4-CN)]RW[Orn]-NH2
modifications: lactam 2-7
SMILES: CC(=O)N[C@@H](CCCNC(=N)N)C(=O)N[C@H]1CCC(=O)NCCC[C@@H](C(N)=O)NC(=O)[C@H](Cc2c[nH]c3ccccc23)NC(=O)[C@H](CCCNC(=N)N)NC(=O)[C@@H](Cc2ccc(C#N)cc2)NC(=O)[C@H]([C@@H](C)O)NC1=O
notes: also called No. 44

Positions of bridges follow the written chain, without caps; N, C: chain ends. Non-standard residues stand in square brackets, D forms with d. dPhe(2-CF3) = N[C@H](Cc1ccccc1C(F)(F)F)C(=O)O; dPhe(4-CN) = N#Cc1ccc(C[C@@H](N)C(=O)O)cc1; dPhe(3-Cl) = N[C@H](Cc1cccc(Cl)c1)C(=O)O; dPhe(2-Me) = Cc1ccccc1C[C@@H](N)C(=O)O; dPhe(4-F) = N[C@H](Cc1ccc(F)cc1)C(=O)O; dPhe(2-F) = N[C@H](Cc1ccccc1F)C(=O)O; Orn = NCCC[C@H](N)C(=O)O

T2 sequence (Q01727 whole entry): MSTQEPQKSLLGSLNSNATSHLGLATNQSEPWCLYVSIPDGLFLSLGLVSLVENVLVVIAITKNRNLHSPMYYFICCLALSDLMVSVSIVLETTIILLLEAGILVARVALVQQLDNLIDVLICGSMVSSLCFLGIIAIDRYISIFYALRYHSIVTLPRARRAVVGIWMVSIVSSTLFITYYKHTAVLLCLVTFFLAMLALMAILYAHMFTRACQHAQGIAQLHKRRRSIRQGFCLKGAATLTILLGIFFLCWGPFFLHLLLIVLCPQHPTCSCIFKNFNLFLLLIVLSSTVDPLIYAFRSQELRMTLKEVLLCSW

The target in the first experiment is T1, human melanocortin-4 receptor (human, UniProt P32245 1-332). Nature of the experiment: cell-based or functional assay.
T1 sequence (P32245 whole entry): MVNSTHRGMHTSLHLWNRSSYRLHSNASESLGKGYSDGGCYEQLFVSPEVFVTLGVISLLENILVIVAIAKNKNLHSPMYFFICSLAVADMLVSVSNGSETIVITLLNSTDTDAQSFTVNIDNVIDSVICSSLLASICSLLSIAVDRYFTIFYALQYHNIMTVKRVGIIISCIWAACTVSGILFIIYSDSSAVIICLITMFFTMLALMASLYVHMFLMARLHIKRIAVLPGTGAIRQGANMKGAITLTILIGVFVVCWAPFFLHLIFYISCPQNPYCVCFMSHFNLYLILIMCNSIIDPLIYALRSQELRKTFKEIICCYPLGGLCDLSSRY
As for Ac-REQ[dPhe(3-Cl)]RW[Orn]-NH2 (lactam 2-7, also called No. 38) [Ac-Arg-cyclo(Glu-Gln-D-Phe(3-Cl)-Arg-Trp-Orn)-NH2], the “EC50, cAMP, 0.1 ng/mL Doxycycline” value was 2 nM; the “EC50, cAMP, 10 ng/mL Doxycycline” value was determined as 0.258 nM; the “Intrinsic Activity, cAMP, 0.1 ng/mL Doxycycline” value stood at 31%; the “Intrinsic Activity, cAMP, 10 ng/mL Doxycycline” value came to 97%.

For the molecule B1, the “EC50, cAMP, 10 ng/mL Doxycycline” value is 0.45 nM; the “Intrinsic Activity, cAMP, 0.1 ng/mL Doxycycline” value turned out to be 12%; the “Intrinsic Activity, cAMP, 10 ng/mL Doxycycline” value was 87%.

Consider B2, for which the “EC50, cAMP, 0.1 ng/mL Doxycycline” value was 1 nM; the “EC50, cAMP, 10 ng/mL Doxycycline” value worked out at 0.085 nM; the “Intrinsic Activity, cAMP, 0.1 ng/mL Doxycycline” value was 58%; the “Intrinsic Activity, cAMP, 10 ng/mL Doxycycline” value turned out to be 93%.

In the case of B3, the “EC50, cAMP, 0.1 ng/mL Doxycycline” value is 11 nM; the “EC50, cAMP, 10 ng/mL Doxycycline” value was 0.617 nM; the “Intrinsic Activity, cAMP, 0.1 ng/mL Doxycycline” value worked out at 22%; the “Intrinsic Activity, cAMP, 10 ng/mL Doxycycline” value worked out at 99%.

In the case of Ac-R[Orn]N[dPhe(2-F)]RWE-NH2 (lactam 2-7, also called No. 71) [Ac-Arg-cyclo(Orn-Asn-D-Phe(2-F)-Arg-Trp-Glu)-NH2], the “EC50, cAMP, 0.1 ng/mL Doxycycline” value turned out to be 1 nM and the “EC50, cAMP, 10 ng/mL Doxycycline” value came out at 0.085 nM.

Take Ac-R[Orn]Q[dPhe(2-CF3)]RWE-NH2 (lactam 2-7, also called No. 115) [Ac-Arg-cyclo(Orn-Gln-D-Phe(2-CF3)-Arg-Trp-Glu)-NH2]: the “EC50, cAMP, 0.1 ng/mL Doxycycline” value came to 0.8 nM; the “EC50, cAMP, 10 ng/mL Doxycycline” value was 0.17 nM; the “Intrinsic Activity, cAMP, 0.1 ng/mL Doxycycline” value was determined as 54%; the “Intrinsic Activity, cAMP, 10 ng/mL Doxycycline” value was 108%.

As to XDQXRWK (N-terminal Ac; D-Arg 1; D-Phe(2-Cl) 4; lactam Asp 2-Lys 7; C-terminal NH2, also called No. 79) [Ac-D-Arg-cyclo(Asp-Gln-D-Phe(2-Cl)-Arg-Trp-Lys)-NH2], the “EC50, cAMP, 0.1 ng/mL Doxycycline” value was 4 nM; the “EC50, cAMP, 10 ng/mL Doxycycline” value is 0.2 nM; the “Intrinsic Activity, cAMP, 0.1 ng/mL Doxycycline” value came out at 48%; the “Intrinsic Activity, cAMP, 10 ng/mL Doxycycline” value was found to be 85%.

Regarding Ac-R[Orn]N[dPhe(2-Me)]RWE-NH2 (lactam 2-7, also called No. 74) [Ac-Arg-cyclo(Orn-Asn-D-Phe(2-Me)-Arg-Trp-Glu)-NH2], the “EC50, cAMP, 0.1 ng/mL Doxycycline” value is 0.943 nM; the “EC50, cAMP, 10 ng/mL Doxycycline” value amounted to 0.11 nM; the “Intrinsic Activity, cAMP, 0.1 ng/mL Doxycycline” value turned out to be 68%; the “Intrinsic Activity, cAMP, 10 ng/mL Doxycycline” value amounted to 100%.

A further experiment addresses T2, melanocortin-1 receptor (mouse (B-16 melanoma cells); in some …, UniProt Q01727 1-315).
T2 construct: whole, on cells; membrane homogenates; also called MC1-R; mouse B16 MC1-R
Nature of the experiment: [I125]-NDP-α-MSH competition, MC1-R membranes. Here is the method:
A competitive inhibition binding assay was performed for exemplified peptides according to the invention using membrane homogenates prepared from HEK-293 cells that express recombinant hMC4-R, hMC3-R, or hMC5-R, and from B-16 mouse melanoma cells (containing endogenous MC1-R). In some instances, HEK-293 cells that express recombinant hMC1-R were employed. Assays were performed in 96 well GF/B Millipore multiscreen filtration plates (MAFB NOB10) pre-coated with 0.5% bovine serum albumin (Fraction V). […] After incubation for 60 minutes at 37° C., the assay mixture was filtered and the membranes washed three times with ice-cold buffer. Filters were dried and counted in a gamma counter for bound radioactivity. […] Each assay was conducted in triplicate and the actual mean values are described, with results less than 0% reported as 0%. Ki values for test peptides of the present invention were determined using Graph-Pad Prism® curve-fitting software.
On to Ac-REQ[dPhe(3-Cl)]RW[Orn]-NH2 (lactam 2-7, also called No. 38) [Ac-Arg-cyclo(Glu-Gln-D-Phe(3-Cl)-Arg-Trp-Orn)-NH2], for which affinity was put at a Ki of 290 nM.

The molecule B1 gave a Ki of 10000 nM. This Ki is about 34-fold higher than that of the molecule before.

On to B2, for which the affinity corresponds to a Ki of 43 nM.

B3 gave a Ki of 1620 nM.

Ac-R[Orn]N[dPhe(2-F)]RWE-NH2 (lactam 2-7, also called No. 71) [Ac-Arg-cyclo(Orn-Asn-D-Phe(2-F)-Arg-Trp-Glu)-NH2] had a Ki of 335 nM.

With Ac-R[Orn]Q[dPhe(2-CF3)]RWE-NH2 (lactam 2-7, also called No. 115) [Ac-Arg-cyclo(Orn-Gln-D-Phe(2-CF3)-Arg-Trp-Glu)-NH2], the affinity, expressed as Ki, was 235 nM. This Ki and that of the molecule before are within 1.5-fold of each other.

XDQXRWK (N-terminal Ac; D-Arg 1; D-Phe(2-Cl) 4; lactam Asp 2-Lys 7; C-terminal NH2, also called No. 79) [Ac-D-Arg-cyclo(Asp-Gln-D-Phe(2-Cl)-Arg-Trp-Lys)-NH2] came in with a Ki of 395 nM. This Ki is about 1.7-fold higher than that of the molecule before.

Ac-R[Orn]N[dPhe(2-Me)]RWE-NH2 (lactam 2-7, also called No. 74) [Ac-Arg-cyclo(Orn-Asn-D-Phe(2-Me)-Arg-Trp-Glu)-NH2] displayed a Ki of 405 nM.

For another experiment, the target named is T1, human melanocortin-4 receptor. Put plainly: [I125]-NDP-α-MSH competition, hMC4-R HEK-293 membranes.
With Ac-REQ[dPhe(3-Cl)]RW[Orn]-NH2 (lactam 2-7, also called No. 38) [Ac-Arg-cyclo(Glu-Gln-D-Phe(3-Cl)-Arg-Trp-Orn)-NH2], the affinity corresponds to a Ki of 3 nM.

Take B1: the Ki came out at 10 nM.

For the molecule B2, the Ki came out at 5 nM.

B3 showed a Ki of 18 nM.

Ac-R[Orn]N[dPhe(2-F)]RWE-NH2 (lactam 2-7, also called No. 71) [Ac-Arg-cyclo(Orn-Asn-D-Phe(2-F)-Arg-Trp-Glu)-NH2] showed an inhibition constant Ki of 9 nM.

The molecule Ac-R[Orn]Q[dPhe(2-CF3)]RWE-NH2 (lactam 2-7, also called No. 115) [Ac-Arg-cyclo(Orn-Gln-D-Phe(2-CF3)-Arg-Trp-Glu)-NH2] registered a Ki of 4 nM.

On to XDQXRWK (N-terminal Ac; D-Arg 1; D-Phe(2-Cl) 4; lactam Asp 2-Lys 7; C-terminal NH2, also called No. 79) [Ac-D-Arg-cyclo(Asp-Gln-D-Phe(2-Cl)-Arg-Trp-Lys)-NH2], for which the affinity corresponds to a Ki of 10 nM.

As for Ac-R[Orn]N[dPhe(2-Me)]RWE-NH2 (lactam 2-7, also called No. 74) [Ac-Arg-cyclo(Orn-Asn-D-Phe(2-Me)-Arg-Trp-Glu)-NH2], affinity was put at a Ki of 5 nM.
